Experimental data taken from the DeepSol protein solubility set.

Assay: soluble on expression in E. coli; label from the status in PepcDB or PDB records

Sequence	soluble on expression in E. coli
MSELILHHYPTSLFAEKARLMLGFKGVNWRSVTIPSIMPKPDLTALTGGYRKTPVLQIGADIYCDTALMARRLEQEKASPAFYPQGQEFAVAGLAAWADSVLFLHAVSLVFQPESMAVRFAKVPPDAAKAFIADRSMLFNGGTASRPPVEQVKHQWPTFMSRLESQLSHGGDFLFGAPSIADFSVAHTLWFLKQTPVTAPFVDDYPSVSVWLDRVLGFGHGSLSDLSSAAAIEIASNATPAPLPDETFIDPNGFKAGDKVAIAAVDYGVEAVEGELMFTGREELILRREDNRAGVVHVHFPRLGFRVEKR	soluble
MSENENSQEKNELLDALNSVEEVNVGDVVKGEVLAIDDDKQVIVGIQGTGVEGVVPLKELSTQRVDDVNEAAKVGDVLDLVVISRIGSDKENGSYLLSHRRLEARKVWDDVEKEYEAGHTIKAPVTQVVKGGLVVDAGVRGFIPASMIDDHYVEDLNAYKGQELELKIIEIEPSENRLILSHRAVVEKQREAQREEALKTLQAGDVVEGKVARLTNFGAFVDLGGIDGLVHVSEISYERVEKPADVLKVGQEVTVKILSVDADRERVSLSIKATLPEPWDGIEEKAPQGAVLDGKVKRLTSFGAFVEVFPGVEGLVHISQISHQHIATPNDVLKVGQEIKVKVLDVRPDEKRLALSIKALEEKPQTADDDNESQPERRSNNNRRRNNNRDNRTASERSTANAPEESTGFTLGDLIGDELKNAESNNDENLEHHHHHH	not soluble
MSERHGVQEATLRNWANLGYITSCRMGNQLFLDDESLTAYLEAHKRLGLQADYLAKIVEEKKLERDFIISRYDDLLYVLRTQKTCKPLYEIIIRELSQLIVHPGARDIFYSISMGESIEKVAGRHRITYDRALQIYNSHLRGLKVRKNVLATYRKHIIDARFQSLADKSKNINLNQEERVLQLSVGKVADTRLTNVLYKEEIRTVGQLLELVSGKGWRWLLKMEGVGRISYDRLLSNLQLAGVVDESLEQILSGRSDR	not soluble
MSERLYYFVIVGRDDRVLYDLLYPASLSELDWRTSSELSSPAERGDFEPHHFIPSIQVLLQFVAYSALDHIEEKYWLTSARSLKHIFRFRDWSASVQLTPNAATRFVLVHGASDDASRNVRAFLHAVYEAYVPHVVCNPFQEEDAPITSKRFHEVAKNLAKRYFSG	not soluble
MSESFAQLFEESLKVLETRQGSIVSGTVVAIQKGFVLVDAGLKSESAIPVAEFLNAQGELEIQVGDTVNVALDAVEDGFGETKLSREKAVRHESWIELEKAYEEKATVIGLIGKVKGGFTVELNGVRAFLPGSLVDTRPAREADHLLGKELEFKVIKLDQKRNNVVVSRRAVIESENSQEREQVLENLVEGSEVKGVVKNLTEYGAFVDLGGVDGLLHITDMAWKRVKHPSEIVNVGDEVTVKVLKFDKDRTRVSLGLKQLGQDPWAAIAENHPVNSKLTGKVTNLTDYGCFVEILDGVEGLVHVSEMDWTNKNIHPSKVVSLGDTVEVMVLEIDEERRRISLGLKQCKANPWTQFADTHNKGDKVTGKIKSITDFGIFIGLEGGIDGLVHLSDISWSISGEEAVRQYKKGDEVSAVVLAVDAVKERISLGIKQLEEDPFNNFVAINKKGAVVSATVVEADAKGAKVELAGGVEGYIRSADLTSEVAVGDVVEAKYTGVDRKSRIVHLSVKAKDQAEEAAAVASVNNKQEDIVIPNAMAEAFKAAKGELEHHHHHH	not soluble
MSESTSSVGPGRPKDPAKREAILEAAKRLFLCNGYDGSSMEAIASEAGVSKLTVYSHFTDKETLFSEAVKAKCAEQLPALYFQLAEGAPLEKVLLNIARGFHRLINSHEAIALTRLMAAQAGQNPKLSELFFEAGPKQVIDEMERLLEQARRSGKLAFPDARHAAEHFFMLVKGCANYRLLIGCAEPLDEAEGERHVEEVVALFLRAFAAGG	not soluble
MSETKNDIAWERIFKKYRILEKIKKNGAFEITSGQINEFREARLMTKFDHRKNLPKIFEENNFSILPITRGSYLIAQFKAYHRLEEKETEIIKIPFPTYIESIDYENITSEAAALNCAYVSGILADFIEDEEMVPTVTGRMSSDAFCFYINTYSGSKFKVNVTNAQIEIDGGYEGLGTFSLIEAKNSLSDDFIIRQIYYPYRLWHDKINKKVKPIFMTYSNGIFTFYEYEFQDPEDYNSLTLVKQKKYSIEETEIGLDDIIEIYKRTKIINEPEVPFPQADSFERIINLCELLNESELTRDEITTNYDFDSRQTNYYTDAARYLGLVHKRKEGREVIFSLTEEGEKLFKLKYKPRQLKFVELILSHKVFREVFELCLKNGKMPDKHEVVKIMRYSNLYKIESEKTFYRRAQTIMSWIKWILELTRL	not soluble
MSETPAQCSIKQERISYTPPESPVPSYASSTPLHVPVPRALRMEEDSIRLPAHLRLQPIYWSRDDVAQWLKWAENEFSLRPIDSNTFEMNGKALLLLTKEDFRYRSPHSGDVLYELLQHILKQRKPRILFSPFFHPGNSIHTQPEVILHQNHEEDNCVQRTPRPSVDNVHHNPPTIELLHRSRSPITTNHRPSPDPEQRPLRSPLDNMIRRLSPAERAQGPRPHQENNHQESYPLSVSPMENNHCPASSESHPKPSSPRQESTRVIQLMPSPIMHPLILNPRHSVDFKQSRLSEDGLHREGKPINLSHREDLAYMNHIMVSVSPPEEHAMPIGRIADCRLLWDYVYQLLSDSRYENFIRWEDKESKIFRIVDPNGLARLWGNHKNRTNMTYEKMSRALRHYYKLNIIRKEPGQRLLFRFMKTPDEIMSGRTDRLEHLESQELDEQIYQEDEC	soluble
MSEVLITGLRTRAVNVPLAYPVHTAVGTVGTAPLVLIDLATSAGVVGHSYLFAYTPVALKSLKQLLDDMAAMIVNEPLAPVSLEAMLAKRFCLAGYTGLIRMAAAGIDMAAWDALGKVHETPLVKLLGANARPVQAYDSHSLDGVKLATERAVTAAELGFRAVKTRIGYPALDQDLAVVRSIRQAVGDDFGIMVDYNQSLDVPAAIKRSQALQQEGVTWIEEPTLQHDYEGHQRIQSKLNVPVQMGENWLGPEEMFKALSIGACRLAMPDAMKIGGVTGWIRASALAQQFGIPMSSHLFQEISAHLLAATPTAHWLERLDLAGSVIEPTLTFEGGNAVIPDLPGVGIIWREKEIGKYLV	soluble
MSEVPHFVLYEHAAGYALMKIKEFDDAGLILQEVDAAHADGYKFSQIVELASFDPFKNTEAALENCNSISEGLAHPDLTNFLQKSLPKKKKHVVLGINDSKLAGSLTEAFPDLKLVFGGVITEILRGTRVHFERLAKNLPHHSLSKAQLSLGHSYSRSKVKFDVHRVDNMVIQSIALLDQLDKDINLFGMRIREWYSYHYPELFRLAPDQYKYSRLAVAILDRNKMAENENLENEILEILDNDSEKTAQIIEAARTSMGMDISDLDLENIKRFAARVSSLMEYRQQLHEYIKDRMDHCAPSLSALIGEQVGARLISHAGSLTNLAKYPASTVQILGAEKALFRALKTRSNTPKYGLLFHSSFIGKAGTKNKGRVSRYLANKCSIAARVDCFSETPVSTYGEFLRQQVEDRLEYFTSGTVPKKNIDVMKEAEEAAVEVKEKVIKKKKKAAKKAKRLAEESVTATAEAEVDEDAPKPKKKKKSKAGDE	not soluble
MSFASGCTPVSFDKLFEVSSGDKVSRENWGMIARPEPQHDSLKRRNTTSSIAKKKAKMTRGDEQITDETARKAATQLLDQIQDTPGRISLNFETPEAASVCPIPTSLNQIVNTKWTVNQLQEGQLTMLLAQDANKFKSLGVKNIKKGSVETQILPRQMDVKEIVEKLKKQDNDSDQFVGYAAAVANVLRRCDAETAQKITQAITATIEKEAPSIVNC	not soluble
MSFDPLPGTLENLLEQTSLKWIFVGGKGGVGKTTTSCSLAIQMSKVRSSVLLISTDPAHNLSDAFGTKFGKDARKVPGFDNLSAMEIDPNLSIQEMTEQADQQNPNNPLSGMMQDLAFTIPGIDEALAFAEILKQIKSMEFDCVIFDTAPTGHTLRFLNFPTVLEKALGKLGGLSSRFGPMINQMGSIMGVNANEQDLFGKMESMRANISEVNKQFKNPDLTTFVCVCISEFLSLYETERMIQELTSYEIDTHNIVVNQLLLDPNTTCPQCMARRKMQQKYLAQIEELYEDFHVVKVPQVPAEVRGTEALKSFSEMLVKPYVYPTSGKE	soluble
MSFKVKNQSKHLYSLMTKFKRSQLILKHQSNNFASELWNEEDIIRSKQFIELIEDTLLHLKKDTVDFIYDIFIYGKKPCDISYSNSTYYKKLNKAANSFFDHFVWEAPIYKTKELKNDNSHS	soluble
MSFTDEKIRLNIGGTIFETSKSTLTKFDGFFKTLLETDIPIQKDDSNCIFIDRSPRHFEKILNYLRDGADVDLLPESEKEVREILKEAQFYLLEGLMELCKRSSCKIRTFESYHHLLKLIAEAGKPVLVMFYLVKDNRIVHVPNNFEFLDFLEKHQGKLDIYFKESPYETTHQNPSQFLPPGREEAAPSWTYCFYNTPKLPFRFTISFVEKLEEDIEFVLGNLNK	not soluble
MSFTVIIPARFASSRLPGKPLADIKGKPMIQHVFEKALQSGASRVIIATDNENVADVAKSFGAEVCMTSVNHNSGTERLAEVVEKLAIPDNEIIVNIQGDEPLIPPVIVRQVADNLAKFNVNMASLAVKIHDAEELFNPNAVKVLTDKDGYVLYFSRSVIPYDRDQFMNLQDVQKVQLSDAYLRHIGIYAYRAGFIKQYVQWAPTQLENLEKLEQLRVLYNGERIHVELAKEVPAVGVDTAEDLEKVRAILAANGSHHHHHH	soluble
MSFVHQKCRNIDTVYLGSNIHRLNVPDNLVKWSQEWSGYNPPAHTDPKVDGAVWADPEIDEKTFQPSWNAIDGKINRVSYVCQYSFDPVTLRPLNPIGRTGLSGRGLLGRWGPNHAADPIVSRTNDNGDLEFVAVQRHDNGEWAIPGGMVDAGEHVSQTLRREFAEEAMHGIVDSENLDELWNNGKELYRGYVDDPRNTDNAWMETVVFNFHDSKGLLKNVALQAGDDAKALRWIAVNSNEPLYASHSHFIDLLKESHSH	not soluble
MSGAGKKIADVAFKASRTIDWDGMAKVLVTDEARREFSNLRRAFDEVNTQLQTKFSQEPEPIDWDYYRKGIGAGIVDKYKEAYDSIEIPKYVDKVTPEYKPKFDALLVELKEAEQKSLKESERLEKEIADVQEISKKLSTMTADEYFEKHPELKKKFDDEIRNDNWGY	soluble
MSGALFLIPAPLGDETVAWLPEGERAKVVHITHFVVEAEKTARKHLKALGVTTPIRELSMSTLNEHTKETDVAALLAPLQAGHDVGLISEAGCPAVADPGAQLVALAHQRDIRVEPLIGPSSILLALMASGANGQCFAFHGYLPVDAAEKSKLVKELEQRSRKHNETQLFIETPYRNNALLAQLRETLAPSTRLAVACDLTLPTQTIVSHRVQDWPQNPPDLHKRPAIFVIHAALEHHHHHH	soluble
MSGFFQRLFGKDNKPAIARGPLGLHLNSGFTLDTLAFRLLEDELLIALPGEEFTVAAVSHIDLGGGSQIFRYYTSGDEFLQINTTGGEDIDDIDDIKLFVYEESYGISKESHWREAINAKAMGAMTLNWQEKRWQRFFNSEEPGNIEPVYMLEKVENQNHAKWEVHNFTMGYQRQVTEDTYEYLLLNGEESFNDLGEPEWLFSRALGVDIPLTSLHIIG	not soluble
MSGGGVIRGPAGNNDCRIYVGNLPPDIRTKDIEDVFYKYGAIRDIDLKNRRGGPPFAFVEFEDPRDAEDAVYGRDGYDYDGYRLRVEFPRSGRGTG	soluble
